This note sets out measurements from patent publication US20120039802A1 (published 2012).

fluorescein = fluorescein label on the side chain of the C-terminal Lys

T1 sequence (P08581 25-932): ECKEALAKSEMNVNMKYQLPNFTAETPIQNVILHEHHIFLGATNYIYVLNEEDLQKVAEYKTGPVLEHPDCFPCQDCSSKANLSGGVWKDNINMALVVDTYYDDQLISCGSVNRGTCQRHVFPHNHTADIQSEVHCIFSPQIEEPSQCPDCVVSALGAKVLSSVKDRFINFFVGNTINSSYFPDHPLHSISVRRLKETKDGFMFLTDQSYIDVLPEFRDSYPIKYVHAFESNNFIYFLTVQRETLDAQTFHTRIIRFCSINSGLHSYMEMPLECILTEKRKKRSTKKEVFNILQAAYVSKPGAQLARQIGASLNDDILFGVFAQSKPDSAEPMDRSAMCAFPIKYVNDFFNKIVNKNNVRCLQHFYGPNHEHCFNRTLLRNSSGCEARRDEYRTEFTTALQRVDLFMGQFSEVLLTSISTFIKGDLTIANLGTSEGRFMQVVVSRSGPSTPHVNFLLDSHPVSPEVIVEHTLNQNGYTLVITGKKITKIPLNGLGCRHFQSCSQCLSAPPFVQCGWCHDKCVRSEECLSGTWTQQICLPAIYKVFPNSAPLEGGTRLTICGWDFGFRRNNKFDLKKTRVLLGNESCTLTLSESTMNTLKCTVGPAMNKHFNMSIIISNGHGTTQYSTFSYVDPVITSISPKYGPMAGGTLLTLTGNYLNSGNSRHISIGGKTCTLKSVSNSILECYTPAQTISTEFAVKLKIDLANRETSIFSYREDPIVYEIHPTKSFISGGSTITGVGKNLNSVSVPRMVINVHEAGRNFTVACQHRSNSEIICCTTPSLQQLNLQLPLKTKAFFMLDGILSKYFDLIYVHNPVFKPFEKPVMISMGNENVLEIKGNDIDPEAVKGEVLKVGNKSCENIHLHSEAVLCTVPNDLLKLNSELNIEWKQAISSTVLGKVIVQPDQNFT

The assay concerns the target T1, cMet-Fc fusion protein (extracellular domain of the cMet receptor expressed as an Fc-fusion protein) (human, UniProt P08581 25-932).
T1 construct: extracellular domain; also called soluble cMet-Fc-fusion protein; soluble cMet receptor; not shown: Fc part
The experiment in a line: fluorescence polarization, 20 nM fluorescein peptide, cMet-Fc varied. As to the method: Fluorescence anisotropy measurements were performed in 384-well microplates in a volume of 10 μL in binding buffer (PBS, 0.01% Tween-20, pH 7.5) using a Tecan Polarion fluorescence polarization plate reader ([…]). […] Binding mixtures were equilibrated for 10 minutes in the microplate at 30 C before measurement. The observed change in anisotropy was fit to the equation below via nonlinear regression to obtain the apparent KD. This equation (1) assumes that the synthetic peptide and cMet form a reversible complex in solution with 1:1 stoichiometry.
Turning to Ac-AGWTHCIGPPTFECIPMGTGGGK(fluorescein)-NH2 (cysteine pairing not given here) [334-G06 synthetic fluorescein-labeled peptide (SEQ ID NO: 052)], the dissociation constant Kd amounted to 2.7 µM. Turning to Ac-AGSIQCVGPPSFECTPYGTGGGK(fluorescein)-NH2 (cysteine pairing not given here) [335-D11 synthetic fluorescein-labeled peptide (SEQ ID NO: 074)], binding was characterised by a dissociation constant (Kd) of 3.3 µM. Take Ac-AGNWICTGPPSFGCWYHGTGGGK(fluorescein)-NH2 (cysteine pairing not given here) [331-G06 synthetic fluorescein-labeled peptide (SEQ ID NO: 078)]: the Kd was 2.9 µM. In turn, Ac-AGWISCAGPPTFACWPGGTGGGK(fluorescein)-NH2 (cysteine pairing not given here) [548-F06 synthetic fluorescein-labeled peptide (SEQ ID NO: 056)] registered an equilibrium dissociation constant (Kd) of 2.7 µM. Take Ac-AGSFACKGPPTFACVEFGTGGGK(fluorescein)-NH2 (cysteine pairing not given here) [330-B07 synthetic fluorescein-labeled peptide (SEQ ID NO: 053)]: the equilibrium dissociation constant (Kd) was found to be 2.9 µM. For Ac-AQRWSSPGMSQSFVLEWKWNDNGGGK(fluorescein)-NH2 [118-A08 synthetic fluorescein-labeled peptide (SEQ ID NO: 453)], the dissociation constant Kd is > 2 µM. Ac-AGGWECTGPPWFQCGYYGTGGGK(fluorescein)-NH2 (cysteine pairing not given here) [334-C08 synthetic fluorescein-labeled peptide (SEQ ID NO: 067)] displayed a dissociation constant Kd of 1.65 µM. In the case of Ac-GDDFHCEFIDDYQSEICYFNDPGGGK(fluorescein)-NH2 (cysteine pairing not given here) [333-C03 synthetic fluorescein-labeled peptide (SEQ ID NO: 391)] it was 1.8 µM; in that of Ac-AGEWWCHGPPEFLCYWTGTGGGK(fluorescein)-NH2 (cysteine pairing not given here) [331-F01 synthetic fluorescein-labeled peptide (SEQ ID NO: 072)], 0.98 µM; in that of Ac-AQIQGIQKTEQGEFYWFNWFPAGGGK(fluorescein)-NH2 [528-F05 synthetic fluorescein-labeled peptide (SEQ ID NO: 450)], 2.7 µM. The molecule Ac-AGDIVCTGHPYFECWSWGTGGGK(fluorescein)-NH2 (cysteine pairing not given here) [333-C05 synthetic fluorescein-labeled peptide (SEQ ID NO: 068)] displayed an equilibrium dissociation constant (Kd) of 2.8 µM. In the case of Ac-GDYDYCDFDLETYIPECHSYDPGGGK(fluorescein)-NH2 (cysteine pairing not given here) [546-G02 synthetic fluorescein-labeled peptide (SEQ ID NO: 390)] it was 1.5 µM; in that of Ac-AQRPEAHYKLAMSYPIIPRTKTGGGK(fluorescein)-NH2 [96-H12 synthetic fluorescein-labeled peptide (SEQ ID NO: 452)], > 2 µM; in that of Ac-AGYTSCVGPPSFECTPYGTGGGK(fluorescein)-NH2 (cysteine pairing not given here) [323-A11 synthetic fluorescein-labeled peptide (SEQ ID NO: 059)], 4.3 µM. Turning to Ac-AGHAWCSGPPRFECWPPGTGGGK(fluorescein)-NH2 (cysteine pairing not given here) [329-D02 synthetic fluorescein-labeled peptide (SEQ ID NO: 061)], the dissociation constant Kd came out at 5.2 µM. In the case of Ac-AGHWICVGPPTFSCQWHGTGGGK(fluorescein)-NH2 (cysteine pairing not given here) [330-G09 synthetic fluorescein-labeled peptide (SEQ ID NO: 071)] it was 1.85 µM.

As for Ac-AQREVEEPYWYLDFLSSWRMHEGGGK(fluorescein)-NH2 [524-E09 synthetic fluorescein-labeled peptide (SEQ ID NO: 451)], the affinity, expressed as Kd, was 2 µM. Under Ac-AQQASRFTFTDGDSYWWFEDFGGGK(fluorescein)-NH2 [525-A07 synthetic fluorescein-labeled peptide (SEQ ID NO: 449)] stands 6.9 µM.

What is called Kd is a measure of binding affinity in units of concentration. Read a low Kd as higher affinity.
